Laboratory results as given in publication PMC4365481.

Columns and labels:
GST-α-actinin R2 [1] = target: GST-α-actinin R2 (UniProt P05094); assay: pull-down; competition: 2 µg GST-α-actinin R2 on glutathione-sepharose, cross-linked with dimethyl pimelimidate; 1 ml of 250 nM His6-GluN1 cytoplasmic domain with increasing amounts of ICAM-5 cytoplasmic domain, RT 1 h; bound His6-GluN1 by western blotting, band intensities fitted to an exponential decay …
GST-α-actinin R2 [2] = target: GST-α-actinin R2 (UniProt P05094); assay: ELISA; details: ICAM-5 cytoplasmic domains coated on plates and incubated with GST-α-actinin rod domains; values normalized to the level of BSA binding; parent: est. 0.22; read off a plot
GST-α-actinin R1 = assay: ELISA; details: ICAM-5 cytoplasmic domains coated on plates and incubated with GST-α-actinin rod domains; values normalized to the level of BSA binding; parent: est. 0.10; read off a plot
GST-α-actinin R4 = GST-α-actinin R4 (UniProt P05094); assay: ELISA; details: ICAM-5 cytoplasmic domains coated on plates and incubated with GST-α-actinin rod domains; values normalized to the level of BSA binding; parent: est. 0.020; read off a plot
GST-α-actinin R3 = assay: ELISA; details: ICAM-5 cytoplasmic domains coated on plates and incubated with GST-α-actinin rod domains; values normalized to the level of BSA binding; parent: est. 0.072; read off a plot
[3] = target: GST-α-actinin R1-R4 (the whole rod domain) (UniProt P05094); assay: ELISA; details: ICAM-5 cytoplasmic domains coated on plates and incubated with GST-α-actinin rod domains; values normalized to the level of BSA binding; parent: est. 0.28; read off a plot

Sequence of UniProt P05094 (P05094 387-510): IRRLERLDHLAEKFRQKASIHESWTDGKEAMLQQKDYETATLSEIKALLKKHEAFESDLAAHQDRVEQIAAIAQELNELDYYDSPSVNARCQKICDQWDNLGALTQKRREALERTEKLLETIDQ

Row | IC50 (GST-α-actinin R2 [1]) [nM] | response (GST-α-actinin R2 [2]) [A492] | response (GST-α-actinin R1) [A492] | response (GST-α-actinin R4) [A492] | response (GST-α-actinin R3) [A492] | response [3] [A492] | Substance
1 | 55 |  |  |  |  |  | ICAM-5 cytoplasmic domain (WT) (from UniProt Q9UMF0 857-924) (domain or fragment)
2 |  | 0.015 | 0.035 | 0.022 | 0.02 | 0.015 | ICAM-5 cytoplasmic domain (WT) (from UniProt Q9UMF0) K857A; K858A
